Test results: article PMC8726653, “TNF-induced necroptosis initiates early autophagy events via RIPK3-dependent AMPK activation, but inhibits late autophagy” (Autophagy, 2021)

Molecular target: T1, His-AMPK [His-HsPRKAA1 (11–559) + HsPRKAB2 (1–272) + HsPRKAG1 (1–331)] (human, UniProt Q13131 11-559; O43741 1-272; P54619 1-331)
T1 construct: also called DU32489; source: obtained: MRC PPU Reagents and Services, University of Dundee (DU32489); copies: + +
Assay: pull-down; 4 µg GST-MmRIPK3 (or GST) on glutathione-Sepharose beads incubated with 1 µg His-AMPK overnight at 4°C in 0.5% Nonidet P-40 buffer (50 mM Tris pH 8.0, 100 mM NaCl, 6 mM EDTA, 6 mM EGTA, 1 mM DTT); blot for AMPK and GST
Conditions: both partners purified

T1 sequence (Q13131 11-559, chain 1 of 3): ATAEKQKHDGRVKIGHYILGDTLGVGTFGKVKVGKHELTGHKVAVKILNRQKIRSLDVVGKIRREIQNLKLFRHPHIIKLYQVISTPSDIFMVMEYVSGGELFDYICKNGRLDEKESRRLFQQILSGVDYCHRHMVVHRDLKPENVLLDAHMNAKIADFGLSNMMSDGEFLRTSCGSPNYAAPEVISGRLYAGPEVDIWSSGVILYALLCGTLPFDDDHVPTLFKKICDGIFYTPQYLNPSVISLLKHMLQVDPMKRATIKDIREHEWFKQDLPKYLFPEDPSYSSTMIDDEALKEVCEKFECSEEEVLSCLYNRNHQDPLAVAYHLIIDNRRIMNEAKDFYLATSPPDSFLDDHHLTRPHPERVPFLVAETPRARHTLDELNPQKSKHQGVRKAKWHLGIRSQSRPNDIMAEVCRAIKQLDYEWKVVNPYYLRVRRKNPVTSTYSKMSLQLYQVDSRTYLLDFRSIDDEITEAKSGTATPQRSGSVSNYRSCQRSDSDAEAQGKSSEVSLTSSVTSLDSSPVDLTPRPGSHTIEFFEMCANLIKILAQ
T1 sequence (O43741 whole entry, chain 2 of 3): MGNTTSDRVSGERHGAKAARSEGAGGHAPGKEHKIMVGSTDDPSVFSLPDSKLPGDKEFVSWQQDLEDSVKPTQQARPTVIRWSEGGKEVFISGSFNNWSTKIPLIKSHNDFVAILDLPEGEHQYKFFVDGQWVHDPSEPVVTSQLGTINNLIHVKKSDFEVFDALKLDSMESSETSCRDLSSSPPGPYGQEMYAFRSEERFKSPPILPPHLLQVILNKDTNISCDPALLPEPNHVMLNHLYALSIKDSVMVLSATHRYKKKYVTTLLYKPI
T1 sequence (P54619 whole entry, chain 3 of 3): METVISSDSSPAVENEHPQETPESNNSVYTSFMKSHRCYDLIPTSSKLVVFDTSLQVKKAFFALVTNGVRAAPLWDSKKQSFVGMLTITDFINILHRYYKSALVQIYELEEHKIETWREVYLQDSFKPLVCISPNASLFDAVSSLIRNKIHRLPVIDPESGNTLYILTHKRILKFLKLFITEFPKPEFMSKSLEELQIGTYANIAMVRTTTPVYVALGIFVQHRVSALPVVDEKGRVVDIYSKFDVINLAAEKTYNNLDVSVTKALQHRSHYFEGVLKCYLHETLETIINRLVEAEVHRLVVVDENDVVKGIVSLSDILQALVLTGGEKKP

- binding result: binds
B1: GST-MmRIPK3 (enzyme, mouse, UniProt Q9QZL0 1-486, looked up)
chain: MSSVKLWPTGASAVPLVSREELKKLEFVGKGGFGVVFRAHHRTWNHDVAVKIVNSKKISWEVKAMVNLRNENVLLLLGVTEDLQWDFVSGQALVTRFMENGSLAGLLQPECPRPWPLLCRLLQEVVLGMCYLHSLNPPLLHRDLKPSNILLDPELHAKLADFGLSTFQGGSQSGSGSGSGSRDSGGTLAYLDPELLFDVNLKASKASDVYSFGILVWAVLAGREAELVDKTSLIRETVCDRQSRPPLTELPPGSPETPGLEKLKELMIHCWGSQSENRPSFQDCEPKTNEVYNLVKDKVDAAVSEVKHYLSQHRSSGRNLSAREPSQRGTEMDCPRETMVSKMLDRLHLEEPSGPVPGKCPERQAQDTSVGPATPARTSSDPVAGTPQIPHTLPFRGTTPGPVFTETPGPHPQRNQGDGRHGTPWYPWTPPNPMTGPPALVFNNCSEVQIGNYNSLVAPPRTTASSSAKYDQAQFGRGRGWQPFHK
notes: cDNA amplified from pBOB-FLAG-MmRIPK3 and inserted into pGEX-5X-3; also called recombinant RIPK3; source: E. coli BL21 (DE3), purified on glutathione sepharose 4B beads
